The target of the test is T1, HGPRBMY3 (human, UniProt Q9H1C0 1-372).
T1 construct: on CHO-NFAT/Galpha15 cells for the reporter assay; also called GPCR19; GPR92; not shown: its amino
The experiment in a line: cell-based phage-display panning on CHO-K1 cells transfected with HGPRBMY3; sequencing of eluted phage. The method, then: On the day of panning, growth medium was discarded and cells were washed with 10 ml PBS by allowing the buffer to flow over the cells. The PBS was removed and 10 ml Tris-EDTA detaching buffer (Gibco Cat. # 13150-016; no trypsin) was added for 2 min. Plates were tapped and/or pipetted up and down to detach cells. This was done quickly to minimize the exposure of the cells to this reagent. Cells were pelleted by centrifugation at 3K, and then washed with 20 ml PBS. Cells were resuspended cells in PBS with 2% milk blocking agent plus protease inhibitor (EDTA-free; Roche Cat. # 1 873 580). For each library, cell suspensions of ˜500 μl were used. Cells were blocked for 30-60 min with gentle rocking at room temperature. The integrin-coated wells were washed 3×in PBST, then blocked with 2% BSA in PBS for 30 min or more. To preadsorb against integrin, input phage was added to the integrin-coated wells, and incubated for 30 min or more.
At this stage, the blocked parental cells were divided into the required number of aliquots (500 μl aliquot/library). The phage supernatants were added from the integrin-preadsorption step. Preadsorption against the parental cells was carried out for 30 min or more with gentle rocking. The blocked transfected cells were divided into the required number of aliquots (500 μl aliquot per library). The transfected cells were pelleted, and the supernatant was discarded. The phage supernatants from the two preadsorption steps were added, and cells were incubated with gentle rocking for 2 h or more. Cells were washed 6-8× with PBST at 5 min intervals. Each wash was performed by gently pipetting the cells up and down, and cells were centrifuged at low speed. To recover binding phage from the washed cell pellets, 500 μl 6M urea, pH 3.0 was added for 15 min. This was neutralized with 10 μl 2 M Tris (not adjusted for pH). The phage in the eluate were titered and arnplified by standard procedures (NEB protocol for PhD phage libraries). In some cases, the eluate was viscous due to the presence of chromosomal DNA.
Standard procedures were used. Phage in eluates were infected into E. coli host strain ER2738 (New England Biolabs) for all M13KE-based libraries, and cells were plated for plaques. Colonies were grown in liquid medium and analyzed by standard sequencing procedures.

This is an account of results in patent US20040209808A1 (published 2004).

T1 sequence (Q9H1C0 whole entry): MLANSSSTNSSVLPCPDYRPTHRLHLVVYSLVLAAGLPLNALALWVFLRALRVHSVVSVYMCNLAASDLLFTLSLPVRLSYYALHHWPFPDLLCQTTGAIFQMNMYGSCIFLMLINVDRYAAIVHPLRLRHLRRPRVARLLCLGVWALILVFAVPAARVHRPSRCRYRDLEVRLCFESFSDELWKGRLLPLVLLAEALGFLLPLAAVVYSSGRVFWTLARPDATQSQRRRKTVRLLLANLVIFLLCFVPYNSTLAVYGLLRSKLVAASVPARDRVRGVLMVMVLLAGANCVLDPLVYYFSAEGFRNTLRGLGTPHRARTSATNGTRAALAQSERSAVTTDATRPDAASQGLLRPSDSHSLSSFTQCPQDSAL

Take KLWILADNFTNR [SEQ ID NO 35]: the binding result is reported as “binds”.
The same measure for TSTPHRVWQLPV [SEQ ID NO 45]: “binds”; for KLWTIPSNDYPP [SEQ ID NO 38]: “binds”; for TTPHRVWNLPLEAQQ [SEQ ID NO 46]: “binds”.
For FPHKLWVLPVKT [SEQ ID NO 37], the binding result was “binds”.
On to KLWDITAPLPKP [SEQ ID NO 41], for which the binding result was “binds”.
Next, TGQTKIWYPHST [SEQ ID NO 18]: “binds”; NAKVWTVPSKPP [SEQ ID NO 21]: “binds”.
For KLWIPHTSQPFL [SEQ ID NO 40], the binding result is “binds”.
Turning to KVVDSNHKVWLVSQT [SEQ ID NO 25], the binding result is listed as “binds”.
The same measure for VYSKVWLLPAGQ [SEQ ID NO 19]: “binds”; for HLKVWEVRSPGP [SEQ ID NO 20]: “binds”.
Next, KLWVPQNRPELV [SEQ ID NO 43]: “binds”; NHDNTKKVWILA [SEQ ID NO 26]: “binds”.
The same measure for ADVLHATPSEKVWLL [SEQ ID NO 24]: “binds”; for KVWIPTSTWLQT [SEQ ID NO 22]: “binds”.

B1: SEQ ID NO 17 (peptide)
peptide: LEAKIWVVPAPS
notes: Selected from random M13KE phage-display libraries
As to B1, the binding result is recorded as “binds”.
Regarding KVWSLDISAPQH [SEQ ID NO 23], the binding result is on record as “binds”.
Next, NAKLWQIPAIPH [SEQ ID NO 42]: “binds”.
The same measure for INSPHELKKLWLLPP [SEQ ID NO 36]: “binds”.
